Measurements published in patent US12583888B2, “Bi-specific extracellular matrix binding peptides and methods of use thereof” (University of Tartu, priority 2019, dated 2026).

Experiments:
[1] = system: U87-MG glioblastoma; conditions: i.v. equimolar mix, 2 h circulation
Excerpt: (§1) In vivo play-off was used to evaluate systemic homing of peptide phage to xenograft tumor models. The in vitro selected candidate TNC-C binding peptides, phages displaying published tumor homing peptides, and control peptides were amplified and purified by precipitation with PEG-8000 (Sigma-Aldrich, St. Louis, MO, USA), followed by CsCl2 gradient ultracentrifugation and dialysis. The amplified phage peptides were pooled in equimolar quantities, and injected intravenously (final 1×10^10 pfu in 200 μl PBS) in tumor-bearing mice for two hour circulation, after which mice were anesthetized with 2.5% avertin and intracardially perfused with DMEM intracardially. The tumors and organs were collected in lysogeny broth (LB)+1% NP40, and the tissues were homogenized using a hand-held homogenizer for phage peptide rescue. Phages in the tissue lysates were amplified in E. coli, purified by precipitation with PEG-8000 and DNA was extracted using a DNA extraction kit (High Pure PCR Template Preparation Kit; Roche, Basel, Switzerland). Next-generation sequencing of phage genomic DNA evaluated the representation of each phage in input mixture, in tumor and control organs with Ion Torrent system (Thermo Fisher Scientific, Waltham, MA, USA). The next generation deep sequencing of phage library was done using Ion Torrent according to the manufacturer's protocol with slight modification. The FASTQ data from Ion Torrent was processed by a custom python script that identified the barcodes, constant flanking residues, and extracted the reads of the correct length.

[2] = system: P13 tumor; conditions: i.v. equimolar mix, 2 h circulation
Excerpt: as §1

[3] = system: P3 stem cell-like tumor; conditions: i.v. equimolar mix, 2 h circulation
Excerpt: as §1

[4] = system: WT-GBM tumor; conditions: i.v. equimolar mix, 2 h circulation
Excerpt: as §1

[5] = system: normal brain; conditions: i.v. equimolar mix, 2 h circulation
Excerpt: as §1

[6] = system: PC3 prostate carcinoma xenografts; conditions: i.v. equimolar mix, 2 h circulation
Excerpt: as §1

[7] = system: FN-EDB and TNC-C; test: Peptide-phage binding to FN-EDB- and TNC-C-coated magnetic beads; conditions: phage-displayed peptide
Experimental: (§2) To identify bispecific peptides that interact with both TNC-C and FN-EDB, cross screens were performed on both targets. During the first round of selection, microtiter plates coated with 20 μg/ml recombinant purified TNC-C were blocked with PBS containing 1% bovine serum albumin (BSA), followed by incubation with 5×10^8 pfu of phages in PBS at 4° C. overnight, by washes to remove background, and by phage rescue and amplification in BLT5403 strain of E. coli (Novagen, EMD Biosciences, MA, USA) (Teesalu et al., Methods Enzymol. 503:35-56 (2012)). The following rounds of biopanning were carried on Ni-NTA Magnetic Agarose Beads (QIAGEN, Hilden, Germany) coated with hexahistidine-tagged FN-EDB (3 μg/μl beads) at room temperature. After 5 rounds of selection, a set of random clones was sequenced, and individual peptide-phage clones and control (G7 peptide-displaying or insertless) phages were incubated with FN-EDB and TNC-C-coated magnetic beads. RPARPAR phage (SEQ ID NO:5) and His-tagged NRP-1 b1b2 domain were used as positive control (Teesalu et al., Proc. Natl. Acad. Sci. U.S.A 106:16157-62 (2009)). To address the specificity of the peptide phage binding to the FN-EDB and TNC-C, the protein-coated beads were pre-incubated with 20 μg/ml blocking rabbit polyclonal antibodies.

[8] = system: FN-EDB and TNC-C; test: Cell-free peptide binding assay (immobilized FAM-peptide, His-tagged protein, ELISA)
Experimental: The FAM-labeled peptides were coated on ELISA plates (Nunc Maxisorp, Thermo Fisher Scientific Inc., MA, USA), blocked with PBS containing 1% BSA, and incubated with recombinant proteins at 2 μg/well in PBS for 6 h. The protein was detected using an anti-His-tag antibody, followed by horseradish peroxidase-conjugated secondary antibody, chromogenic reaction, and measurement of absorbance at 450 nm with a microplate reader (Tecan Austria GmbH, Gradig, Austria).

[9] = molecular target: T1, NRP-1 b1b2 domain (Homo sapiens, UniProt O14786); test: PL1 phage binding to recombinant control protein NRP-1; conditions: phage-displayed peptide
T1 construct: His-tagged NRP-1 b1b2 domain were used as positive control; His tag; made in house
T1 sequence (O14786 273-586 limits assumed): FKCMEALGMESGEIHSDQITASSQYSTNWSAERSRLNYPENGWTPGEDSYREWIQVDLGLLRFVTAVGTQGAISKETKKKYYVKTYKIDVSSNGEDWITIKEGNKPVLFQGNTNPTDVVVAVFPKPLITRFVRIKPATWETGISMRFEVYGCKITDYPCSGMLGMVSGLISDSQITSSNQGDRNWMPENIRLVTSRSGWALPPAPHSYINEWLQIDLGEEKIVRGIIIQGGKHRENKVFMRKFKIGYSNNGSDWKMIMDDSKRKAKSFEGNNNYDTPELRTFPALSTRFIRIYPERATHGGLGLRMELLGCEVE
Experimental: as §2

[10] = system: Neuropilin 1 b1b2 domain (NRP1) and Fn-EDB; test: PL2 phage binding to purified NRP1 together with Fn-EDB
Experimental: For cell-free binding studies using individually amplified phage clones; phage was incubated with Fn-EDB coated magnetic beads as described above. RPARPAR phage on NRP-1-coated beads was used as a positive control (Teesalu et al., 2009), Nucleolin (NCL) and Tenascin C-C domain (TNC-C) were used as negative control. Phage clones displaying heptaglycine peptide (GGGGGGG, G7 (SEQ ID NO:20)) or insert less phage clones were used as negative controls.

RRLVRVA
Representation of phage in tumors (fold G7 control phage), U87-MG [1]: 0.6 fold | Representation of phage in tumors (fold G7 control phage), P13 [2]: 0.4 fold | Representation of phage in tumors (fold G7 control phage), P3 SCL [3]: 0.3 fold | Representation of phage in tumors (fold G7 control phage), WT-GBM [4]: 1.4 fold | Representation of phage in control brain tissue (fold G7 control phage), Norm. brain [5]: 0.1 fold | Representation of phage in tumors (fold G7 control phage), PC3 [6]: 0.9 fold

PPRRGLIKLKTS [PL1]
Binding Specificity [7]: TNC-C + FN-EDB | binding to FN-EDB and TNC-C on phage and as synthetic FAM-labeled peptide [8]: retained the ability to bind to both FN-EDB and TNC-C | interaction of phage with recombinant control protein NRP-1 [9]: did not interact

CAGRGRLVRC
Representation of phage in tumors (fold G7 control phage), U87-MG [1]: 0.1 fold | Representation of phage in tumors (fold G7 control phage), P13 [2]: 0.4 fold | Representation of phage in tumors (fold G7 control phage), P3 SCL [3]: 0.2 fold | Representation of phage in tumors (fold G7 control phage), WT-GBM [4]: 0.9 fold | Representation of phage in control brain tissue (fold G7 control phage), Norm. brain [5]: 0.0 fold | Representation of phage in tumors (fold G7 control phage), PC3 [6]: 0.4 fold

VGRVRFSRKLAAALE
Representation of phage in tumors (fold G7 control phage), U87-MG [1]: 0.7 fold | Representation of phage in tumors (fold G7 control phage), P13 [2]: 0.5 fold | Representation of phage in tumors (fold G7 control phage), P3 SCL [3]: 0.4 fold | Representation of phage in tumors (fold G7 control phage), WT-GBM [4]: 2.5 fold | Representation of phage in control brain tissue (fold G7 control phage), Norm. brain [5]: 0.1 fold | Representation of phage in tumors (fold G7 control phage), PC3 [6]: 1.2 fold

TSKQNSR [PL2]
binding of phage-displayed peptide to Fn-EDB and NRP1 [10]: bind specifically to both Fn-EDB and NRP1

CRGVLRRAKLAAALE
Representation of phage in tumors (fold G7 control phage), U87-MG [1]: 0.7 fold | Representation of phage in tumors (fold G7 control phage), P13 [2]: 0.4 fold | Representation of phage in tumors (fold G7 control phage), P3 SCL [3]: 0.4 fold | Representation of phage in tumors (fold G7 control phage), WT-GBM [4]: 1.6 fold | Representation of phage in control brain tissue (fold G7 control phage), Norm. brain [5]: 0.1 fold | Representation of phage in tumors (fold G7 control phage), PC3 [6]: 0.9 fold

CSRRGILRAKPAAALE
Representation of phage in tumors (fold G7 control phage), U87-MG [1]: 1.1 fold | Representation of phage in tumors (fold G7 control phage), P13 [2]: 0.8 fold | Representation of phage in tumors (fold G7 control phage), P3 SCL [3]: 0.9 fold | Representation of phage in tumors (fold G7 control phage), WT-GBM [4]: 1.5 fold | Representation of phage in control brain tissue (fold G7 control phage), Norm. brain [5]: 0.1 fold | Representation of phage in tumors (fold G7 control phage), PC3 [6]: 1.2 fold

RGRLVRAK
Representation of phage in tumors (fold G7 control phage), U87-MG [1]: 0.5 fold | Representation of phage in tumors (fold G7 control phage), P13 [2]: 0.1 fold | Representation of phage in tumors (fold G7 control phage), P3 SCL [3]: 0.3 fold | Representation of phage in tumors (fold G7 control phage), WT-GBM [4]: 23.8 fold | Representation of phage in control brain tissue (fold G7 control phage), Norm. brain [5]: 0.2 fold | Representation of phage in tumors (fold G7 control phage), PC3 [6]: 3.0 fold

AGVGRLRRAKLAAALE
Representation of phage in tumors (fold G7 control phage), U87-MG [1]: 1.0 fold | Representation of phage in tumors (fold G7 control phage), P13 [2]: 0.9 fold | Representation of phage in tumors (fold G7 control phage), P3 SCL [3]: 0.9 fold | Representation of phage in tumors (fold G7 control phage), WT-GBM [4]: 2.3 fold | Representation of phage in control brain tissue (fold G7 control phage), Norm. brain [5]: 0.2 fold | Representation of phage in tumors (fold G7 control phage), PC3 [6]: 1.4 fold

PPRRGLIKLKTSSNTKENSVVASLRP [PL5]
Binding Specificity [7]: TNC-C + FN-EDB

GRLTRVR
Representation of phage in tumors (fold G7 control phage), U87-MG [1]: 0.9 fold | Representation of phage in tumors (fold G7 control phage), P13 [2]: 0.5 fold | Representation of phage in tumors (fold G7 control phage), P3 SCL [3]: 0.5 fold | Representation of phage in tumors (fold G7 control phage), WT-GBM [4]: 1.9 fold | Representation of phage in control brain tissue (fold G7 control phage), Norm. brain [5]: 0.1 fold | Representation of phage in tumors (fold G7 control phage), PC3 [6]: 0.9 fold

AGRGRLVRAKLAAALE
Representation of phage in tumors (fold G7 control phage), U87-MG [1]: 0.2 fold | Representation of phage in tumors (fold G7 control phage), P13 [2]: 0.1 fold | Representation of phage in tumors (fold G7 control phage), P3 SCL [3]: 0.4 fold | Representation of phage in tumors (fold G7 control phage), WT-GBM [4]: 23.9 fold | Representation of phage in control brain tissue (fold G7 control phage), Norm. brain [5]: 0.0 fold | Representation of phage in tumors (fold G7 control phage), PC3 [6]: 0.3 fold

GGGGGGG [reference compound]
Representation of phage in tumors (fold G7 control phage), U87-MG [1]: 1.0 fold | Representation of phage in tumors (fold G7 control phage), P13 [2]: 1.0 fold | Representation of phage in tumors (fold G7 control phage), P3 SCL [3]: 1.0 fold | Representation of phage in tumors (fold G7 control phage), WT-GBM [4]: 1.0 fold | Representation of phage in control brain tissue (fold G7 control phage), Norm. brain [5]: 1 fold | Representation of phage in tumors (fold G7 control phage), PC3 [6]: 1.0 fold

RGRLVRA
Representation of phage in tumors (fold G7 control phage), U87-MG [1]: 0.8 fold | Representation of phage in tumors (fold G7 control phage), P13 [2]: 0.4 fold | Representation of phage in tumors (fold G7 control phage), P3 SCL [3]: 0.3 fold | Representation of phage in tumors (fold G7 control phage), WT-GBM [4]: 3 fold | Representation of phage in control brain tissue (fold G7 control phage), Norm. brain [5]: 0.1 fold | Representation of phage in tumors (fold G7 control phage), PC3 [6]: 1.8 fold
